In US20220195012A1 (NATIONAL CENTRE FOR CELL SCIENCE, published 2022):
Substitutions are numbered along the chain they refer to. In names and notes the source's numbering stands. Several values for one entry are separate records, joined by “and”; a condition that tells them apart may be missing. Identical values can stand only once. Each block holds one binder with its values, some of them ahead of it.

What was measured:
Assay in all cases: cell-based or functional assay
C4b = C4b (UniProt P0C0L4 757-1446; P0C0L4 20-675; P0C0L4 1454-1744, in the SPR assays biotinylated at the free -SH group with EZ-Link PEO-maleimide-activated biotin)
C3b = C3b (UniProt P01024 23-667; P01024 749-1663, in the SPR assays biotinylated at the free -SH group with EZ-Link PEO-maleimide-activated biotin)
CP C3-convertase (C4b2a) [1] = molecular target: T1, CP C3-convertase (C4b2a) (UniProt P0C0L4 757-1446; P0C0L4 20-675; P0C0L4 1454-1744; P06681 244-752)
AP C3-convertase (C3bBb) [2] = molecular target: T2, AP C3-convertase (C3bBb) (UniProt P01024 23-667; P01024 749-1663; P00751 260-764)
AP C3-convertase (C3bBb) [3] = molecular target: T2, AP C3-convertase (C3bBb); remark: listed apart in the source
CP C3-convertase (C4b2a) [4] = molecular target: T1, CP C3-convertase (C4b2a); remark: listed apart in the source

T1 sequence (P0C0L4 757-1446 limits assumed, chain 1 of 4): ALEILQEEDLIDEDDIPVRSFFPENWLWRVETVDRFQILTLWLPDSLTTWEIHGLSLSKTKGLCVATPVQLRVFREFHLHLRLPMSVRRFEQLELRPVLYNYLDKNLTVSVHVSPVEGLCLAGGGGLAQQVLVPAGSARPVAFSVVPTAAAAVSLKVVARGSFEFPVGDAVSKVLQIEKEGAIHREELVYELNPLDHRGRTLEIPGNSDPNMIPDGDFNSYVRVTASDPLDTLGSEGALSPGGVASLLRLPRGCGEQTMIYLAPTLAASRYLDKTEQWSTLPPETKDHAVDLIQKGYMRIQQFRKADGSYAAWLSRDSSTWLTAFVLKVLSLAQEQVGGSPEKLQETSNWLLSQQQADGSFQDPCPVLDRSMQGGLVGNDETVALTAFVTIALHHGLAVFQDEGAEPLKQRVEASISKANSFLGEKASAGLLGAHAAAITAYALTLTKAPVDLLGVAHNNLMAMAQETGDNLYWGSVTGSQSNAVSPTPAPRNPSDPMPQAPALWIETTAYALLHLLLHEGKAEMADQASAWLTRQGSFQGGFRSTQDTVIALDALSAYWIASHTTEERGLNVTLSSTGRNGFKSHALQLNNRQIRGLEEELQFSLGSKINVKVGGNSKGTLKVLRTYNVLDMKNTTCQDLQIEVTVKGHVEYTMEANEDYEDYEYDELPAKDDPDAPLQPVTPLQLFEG
T1 sequence (P0C0L4 20-675 limits assumed, chain 2 of 4): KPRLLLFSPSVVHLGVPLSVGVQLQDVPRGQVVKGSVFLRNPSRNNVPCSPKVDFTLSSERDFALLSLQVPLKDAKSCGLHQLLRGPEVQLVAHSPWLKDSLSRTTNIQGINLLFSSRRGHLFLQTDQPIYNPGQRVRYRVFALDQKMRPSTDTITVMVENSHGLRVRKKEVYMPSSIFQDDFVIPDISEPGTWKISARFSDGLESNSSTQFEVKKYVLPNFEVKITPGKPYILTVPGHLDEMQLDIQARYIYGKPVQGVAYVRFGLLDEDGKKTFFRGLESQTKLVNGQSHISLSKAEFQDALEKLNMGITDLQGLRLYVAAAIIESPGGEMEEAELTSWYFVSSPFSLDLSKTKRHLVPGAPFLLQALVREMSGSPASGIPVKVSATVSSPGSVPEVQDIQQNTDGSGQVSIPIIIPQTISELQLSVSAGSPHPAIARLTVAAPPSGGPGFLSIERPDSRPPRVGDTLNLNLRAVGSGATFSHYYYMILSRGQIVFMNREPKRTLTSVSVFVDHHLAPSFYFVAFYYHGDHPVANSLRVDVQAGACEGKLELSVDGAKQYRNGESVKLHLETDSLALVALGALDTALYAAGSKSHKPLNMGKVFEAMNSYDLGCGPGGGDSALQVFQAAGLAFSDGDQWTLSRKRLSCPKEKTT
T1 sequence (P0C0L4 1454-1744 limits assumed, chain 3 of 4): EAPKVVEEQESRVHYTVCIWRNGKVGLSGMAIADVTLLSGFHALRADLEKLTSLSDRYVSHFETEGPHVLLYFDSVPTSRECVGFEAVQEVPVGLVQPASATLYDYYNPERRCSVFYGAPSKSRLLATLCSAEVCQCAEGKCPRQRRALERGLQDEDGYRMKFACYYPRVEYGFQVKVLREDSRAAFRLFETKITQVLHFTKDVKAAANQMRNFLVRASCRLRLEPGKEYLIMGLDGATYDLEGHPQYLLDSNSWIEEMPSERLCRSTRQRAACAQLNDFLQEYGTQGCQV
T1 sequence (P06681 244-752 limits assumed, chain 4 of 4): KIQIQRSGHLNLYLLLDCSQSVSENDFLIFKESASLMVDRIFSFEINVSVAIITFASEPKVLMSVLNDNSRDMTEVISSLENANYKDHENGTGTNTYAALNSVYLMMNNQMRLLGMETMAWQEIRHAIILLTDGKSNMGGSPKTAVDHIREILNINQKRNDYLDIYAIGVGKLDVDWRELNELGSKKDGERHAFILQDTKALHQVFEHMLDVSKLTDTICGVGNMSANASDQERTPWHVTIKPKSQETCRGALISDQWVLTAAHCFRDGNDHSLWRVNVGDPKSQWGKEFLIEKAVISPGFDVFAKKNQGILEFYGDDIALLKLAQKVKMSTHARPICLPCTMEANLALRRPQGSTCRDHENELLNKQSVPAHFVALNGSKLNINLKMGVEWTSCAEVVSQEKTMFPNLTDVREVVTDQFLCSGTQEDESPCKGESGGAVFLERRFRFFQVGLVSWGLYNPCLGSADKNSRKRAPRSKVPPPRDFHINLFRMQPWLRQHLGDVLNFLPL
Sequence of C4b (P0C0L4 757-1446 limits assumed, chain 1 of 3): as the sequence (P0C0L4 757-1446 limits assumed, chain 1 of 4) above
Sequence of C4b (P0C0L4 20-675 limits assumed, chain 2 of 3): as the sequence (P0C0L4 20-675 limits assumed, chain 2 of 4) above
Sequence of C4b (P0C0L4 1454-1744 limits assumed, chain 3 of 3): as the sequence (P0C0L4 1454-1744 limits assumed, chain 3 of 4) above
Sequence of C3b (P01024 23-667 limits assumed, chain 1 of 2): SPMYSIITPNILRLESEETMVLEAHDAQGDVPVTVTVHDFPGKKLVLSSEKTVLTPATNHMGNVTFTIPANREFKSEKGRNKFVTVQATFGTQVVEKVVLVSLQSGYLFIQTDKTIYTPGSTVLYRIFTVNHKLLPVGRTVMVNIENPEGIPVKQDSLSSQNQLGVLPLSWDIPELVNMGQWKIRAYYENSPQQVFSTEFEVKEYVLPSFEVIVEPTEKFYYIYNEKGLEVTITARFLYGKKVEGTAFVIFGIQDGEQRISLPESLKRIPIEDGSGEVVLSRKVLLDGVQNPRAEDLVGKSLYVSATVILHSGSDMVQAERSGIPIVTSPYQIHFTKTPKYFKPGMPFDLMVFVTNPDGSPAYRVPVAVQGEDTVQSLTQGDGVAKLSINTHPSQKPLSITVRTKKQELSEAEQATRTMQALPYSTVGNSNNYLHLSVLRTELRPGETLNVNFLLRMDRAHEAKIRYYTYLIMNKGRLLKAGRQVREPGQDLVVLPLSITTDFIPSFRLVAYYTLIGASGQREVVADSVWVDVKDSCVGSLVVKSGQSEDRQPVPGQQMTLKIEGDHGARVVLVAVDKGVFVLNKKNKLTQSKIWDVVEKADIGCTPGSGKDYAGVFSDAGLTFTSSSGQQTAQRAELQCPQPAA
Sequence of C3b (P01024 749-1663 limits assumed, chain 2 of 2): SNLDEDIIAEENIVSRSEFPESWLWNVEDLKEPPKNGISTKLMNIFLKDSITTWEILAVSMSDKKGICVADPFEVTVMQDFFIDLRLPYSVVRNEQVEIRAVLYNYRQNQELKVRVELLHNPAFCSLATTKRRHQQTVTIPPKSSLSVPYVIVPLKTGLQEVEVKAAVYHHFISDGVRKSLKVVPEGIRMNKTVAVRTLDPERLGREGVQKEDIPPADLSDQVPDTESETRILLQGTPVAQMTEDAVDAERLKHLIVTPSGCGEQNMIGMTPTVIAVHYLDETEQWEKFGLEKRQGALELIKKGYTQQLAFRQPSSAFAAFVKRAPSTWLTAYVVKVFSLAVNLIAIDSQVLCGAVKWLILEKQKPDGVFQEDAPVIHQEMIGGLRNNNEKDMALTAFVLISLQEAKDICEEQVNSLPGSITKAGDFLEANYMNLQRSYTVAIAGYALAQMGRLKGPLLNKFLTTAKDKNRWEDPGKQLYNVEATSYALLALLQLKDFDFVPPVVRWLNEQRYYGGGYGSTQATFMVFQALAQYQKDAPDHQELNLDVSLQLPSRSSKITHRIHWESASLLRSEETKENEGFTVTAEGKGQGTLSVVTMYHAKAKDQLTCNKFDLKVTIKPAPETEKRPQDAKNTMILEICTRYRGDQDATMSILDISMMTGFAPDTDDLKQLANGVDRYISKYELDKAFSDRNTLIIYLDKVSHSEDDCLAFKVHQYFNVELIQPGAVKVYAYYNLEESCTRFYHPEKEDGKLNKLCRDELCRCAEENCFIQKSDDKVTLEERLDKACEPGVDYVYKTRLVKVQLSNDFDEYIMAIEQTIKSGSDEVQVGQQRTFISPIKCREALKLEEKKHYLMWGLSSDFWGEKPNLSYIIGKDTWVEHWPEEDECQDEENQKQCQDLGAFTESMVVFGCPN
T2 sequence (P01024 23-667 limits assumed, chain 1 of 3): as the sequence (P01024 23-667 limits assumed, chain 1 of 2) above
T2 sequence (P01024 749-1663 limits assumed, chain 2 of 3): as the sequence (P01024 749-1663 limits assumed, chain 2 of 2) above
T2 sequence (P00751 260-764 limits assumed, chain 3 of 3): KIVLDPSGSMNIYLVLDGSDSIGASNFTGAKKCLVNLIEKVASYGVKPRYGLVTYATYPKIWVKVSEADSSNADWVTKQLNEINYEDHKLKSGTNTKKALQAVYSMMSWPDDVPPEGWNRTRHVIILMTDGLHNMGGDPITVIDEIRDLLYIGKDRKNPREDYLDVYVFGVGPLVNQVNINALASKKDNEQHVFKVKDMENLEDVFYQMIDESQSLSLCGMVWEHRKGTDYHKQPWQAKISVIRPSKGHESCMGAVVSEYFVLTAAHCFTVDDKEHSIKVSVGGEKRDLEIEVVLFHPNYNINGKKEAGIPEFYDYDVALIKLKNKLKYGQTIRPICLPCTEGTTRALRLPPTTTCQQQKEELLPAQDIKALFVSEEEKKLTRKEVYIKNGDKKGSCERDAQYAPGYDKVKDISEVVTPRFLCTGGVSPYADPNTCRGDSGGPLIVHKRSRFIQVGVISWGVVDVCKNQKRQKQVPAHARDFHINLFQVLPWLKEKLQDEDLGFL

- C4b CFA: Time (min.) for 50% cleavage of C4B α′-chain (C4b): 5.5 min
- Relative C4b CFA (C4b): 1.7
- C3b CFA: Time (min.) for 50% cleavage of C3B α′-chain (C3b): 17.5 min
- Relative C3b CFA (C3b): 0.25
- CP-DAA IC50 (CP C3-convertase (C4b2a) [1]): 39.3 µM
- Relative CP-DAA (CP C3-convertase (C4b2a) [1]): 0.4
- AP-DAA IC50 (AP C3-convertase (C3bBb) [2]): > 0.01 µM
- Relative AP-DAA (AP C3-convertase (C3bBb) [2]): < 0.3
B1: D2D3M3M4 (Multi-4) (other)
chain: CEVPTRLNSASLKQPYITQNYFPVGTVVEYECRPGYRREPSLSPKLTCLQNLKWSTAVEFCKKKSCPNPGEIRNGQIDVPGGILFGATISFSCNTGYKLIGKTSSFCLISGSSVQWSDKLPICEKVLCTPPPKIKNGKHTFSEVEVFEYLDAVTYSCDPAPGPDPFSLIGESTIYCGDNSVWSRAAPECKVVKCRFPVVENGKQISGFGKKFYYKATVMFECDKGFYLDGSDTIVCDSNSTWDPPVPKCLKVL

- AP-DAA IC50 (AP C3-convertase (C3bBb) [2]): 0.0024 µM and 0.0021 µM
B2: D2D3M3M4 (DAF-MCP chimera) (other)
chain: B1 chain with I100F, K102S, K119P, I122E, E124R, K125E, V126I, L127Y

- Relative C4b CFA (C4b): 1
- Relative C3b CFA (C3b): 1
B3: Human MCP (M1-M4), membrane cofactor protein (other)
chain: CEEPPTFEAMELIGKPKPYYEIGERVDYKCKKGYFYIPPLATHTICDRNHTWLPVSDDACYRETCPYIRDPLNGQAVPANGTYEFGYQMHFICNEGYYLIGEEILYCELKGSVAIWSGKPPICEKVLCTPPPKIKNGKHTFSEVEVFEYLDAVTYSCDPAPGPDPFSLIGESTIYCGDNSVWSRAAPECKVVKCRFPVVENGKQISGFGKKFYYKATVMFECDKGFYLDGSDTIVCDSNSTWDPPVPKCLKVL

- Relative CP-DAA (CP C3-convertase (C4b2a) [1]): 1
- AP-DAA IC50 (AP C3-convertase (C3bBb) [2]): 0.0031 µM and 0.0023 µM and 0.0011 µM
B4: Human DAF (D1-D4), decay-accelerating factor (other)
chain: CGLPPDVPNAQPALEGRTSFPEDTVITYKCEESFVKIPGEKDSVICLKGSQWSDIEEFCNRSCEVPTRLNSASLKQPYITQNYFPVGTVVEYECRPGYRREPSLSPKLTCLQNLKWSTAVEFCKKKSCPNPGEIRNGQIDVPGGILFGATISFSCNTGYKLFGSTSSFCLISGSSVQWSDPLPECREIYCPAPPQIDNGIIQGERDHYGYRQSVTYACNKGFTMIGEHSIYCTVNNDEGEWSGPPPECRGKS

- CP-DAA IC50 (CP C3-convertase (C4b2a) [1]): 457 µM
- Relative CP-DAA (CP C3-convertase (C4b2a) [1]): 0.03
- AP-DAA IC50 (AP C3-convertase (C3bBb) [2]): > 0.019 µM
- Relative AP-DAA (AP C3-convertase (C3bBb) [2]): < 0.1
B5: D2M2-4 (DAF-MCP chimera with the DAF D2-D3 linker) (other)
chain: CEVPTRLNSASLKQPYITQNYFPVGTVVEYECRPGYRREPSLSPKLTCLQNLKWSTAVEFCKKKSCPYIRDPLNGQAVPANGTYEFGYQMHFICNEGYYLIGEEILYCELKGSVAIWSGKPPICEKVLCTPPPKIKNGKHTFSEVEVFEYLDAVTYSCDPAPGPDPFSLIGESTIYCGDNSVWSRAAPECKVVKCRFPVVENGKQISGFGKKFYYKATVMFECDKGFYLDGSDTIVCDSNSTWDPPVPKCLKVL

- AP-DAA, fold increase compared to D2M2-4 (AP C3-convertase (C3bBb) [3]): 7.2 fold
B6: D2M2-4 (Y101N) (other)
chain: B5 chain with Y68N

- CP-DAA IC50 (CP C3-convertase (C4b2a) [1]): > 1000 µM
- Relative CP-DAA (CP C3-convertase (C4b2a) [1]): < 0.01
- AP-DAA IC50 (AP C3-convertase (C3bBb) [2]): > 0.01 µM
- Relative AP-DAA (AP C3-convertase (C3bBb) [2]): < 0.1
B7: D2M2-4 (ML) (DAF-MCP chimera with the MCP M1-M2 linker YRET) (other)
chain: B5 chain with K62Y, K63R, K64E, S65T

- AP-DAA, fold increase compared to D2M2-4 (AP C3-convertase (C3bBb) [3]): 5.6 fold
B8: D2M2-4 (E136Q) (D2) (other)
chain: B5 chain with E39Q

- CP-DAA, fold increase (CP C3-convertase (C4b2a) [4]): ~2 fold
- AP-DAA, fold gain compared to D2M2-4 (AP C3-convertase (C3bBb) [3]): 3.4 fold
B9: D2M2-4 (L161K) (other)
chain: B5 chain with L128K

- CP-DAA, fold increase (CP C3-convertase (C4b2a) [4]): ~2 fold
- AP-DAA, fold gain compared to D2M2-4 (AP C3-convertase (C3bBb) [3]): 6.7 fold
B10: D2M2-4 (I134A) (other)
chain: B5 chain with I101A
